System: Escherichia coli TOP10
Test: shrunken log2 fold change of peptide-encoding DNA abundance (4.5 h post-induction vs induction); higher = less antimicrobial activity (less host growth inhibition)
Settings: time post-induction: 4.5 h; library: site-saturation at positions 5, 18, 19, 20
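Also: peptides expressed intracellularly from a pBAD plasmid library in pooled LB shake-flask culture, induced with 0.3% L-arabinose, DNA abundance read by NGS, three biological replicates, DESeq2 with apeglm shrinkage.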

Sequence	shrunken log2 fold change
RRIRDRPPRLPRPRPRPANAPRP	-0.00277
RRIRKRPPRLPRPRPRPNDGPRP	-0.0887
RRIRFRPPRLPRPRPRPPHIPRP	-0.21
RRIRGRPPRLPRPRPRPQPRPRP	0.9
RRIRGRPPRLPRPRPRPHSKPRP	0.205
RRIRERPPRLPRPRPRPMKDPRP	0.13
RRIRKRPPRLPRPRPRPPASPRP	0.424
RRIRLRPPRLPRPRPRPKYWPRP	-0.131
RRIRPRPPRLPRPRPRPNVLPRP	-0.312
RRIRTRPPRLPRPRPRPYCGPRP	-0.294
RRIRPRPPRLPRPRPRPINFPRP	-0.168
RRIRPRPPRLPRPRPRPDMYPRP	-0.192
RRIRERPPRLPRPRPRPKMFPRP	-0.000277
RRIRARPPRLPRPRPRPEVRPRP	0.623
RRIRSRPPRLPRPRPRPTCRPRP	-0.0471
RRIRMRPPRLPRPRPRPISFPRP	-0.496
RRIRNRPPRLPRPRPRPSHKPRP	-0.291
RRIRQRPPRLPRPRPRPEHVPRP	0.00725
RRIRHRPPRLPRPRPRPIYIPRP	-0.156
RRIRARPPRLPRPRPRPDDTPRP	0.468
RRIRPRPPRLPRPRPRPKAIPRP	0.11
RRIRRRPPRLPRPRPRPAHHPRP	0.332
RRIRMRPPRLPRPRPRPVSSPRP	-0.0703
RRIRERPPRLPRPRPRPKIKPRP	-0.6
RRIRSRPPRLPRPRPRPMPCPRP	0.216

Sequence	shrunken log2 fold change
RRIRIRPPRLPRPRPRPCHRPRP	-0.452
RRIRDRPPRLPRPRPRPWVMPRP	-0.167
RRIRSRPPRLPRPRPRPWRHPRP	-0.106
RRIRYRPPRLPRPRPRPPYVPRP	-0.266
RRIRMRPPRLPRPRPRPSHEPRP	0.267
RRIRQRPPRLPRPRPRPDEVPRP	0.0037
RRIRMRPPRLPRPRPRPADMPRP	0.728
RRIRLRPPRLPRPRPRPFNRPRP	-0.00257
RRIRIRPPRLPRPRPRPCLTPRP	0.0747
RRIRFRPPRLPRPRPRPKCIPRP	-0.338
RRIRQRPPRLPRPRPRPHENPRP	-0.0313
RRIRKRPPRLPRPRPRPGEAPRP	1.09
RRIRHRPPRLPRPRPRPPKKPRP	-0.0115
RRIRARPPRLPRPRPRPRDYPRP	0.204
RRIRERPPRLPRPRPRPWFWPRP	0.061
RRIRTRPPRLPRPRPRPPAGPRP	0.279
RRIRARPPRLPRPRPRPMMPPRP	0.307
RRIRLRPPRLPRPRPRPRAPPRP	0.71
RRIRMRPPRLPRPRPRPYNDPRP	0.0185
RRIRARPPRLPRPRPRPIWNPRP	-0.0575
RRIRQRPPRLPRPRPRPDIMPRP	-0.136
RRIRNRPPRLPRPRPRPHCQPRP	-0.861
RRIRIRPPRLPRPRPRPRTRPRP	0.0709
RRIRKRPPRLPRPRPRPKQCPRP	0.0637
RRIRTRPPRLPRPRPRPFTWPRP	-0.308

Sequence	shrunken log2 fold change
RRIRFRPPRLPRPRPRPDFVPRP	-0.0292
RRIRTRPPRLPRPRPRPHANPRP	-0.254
RRIRPRPPRLPRPRPRPYMCPRP	-0.714
RRIRTRPPRLPRPRPRPKDQPRP	-0.0284
RRIRHRPPRLPRPRPRPWFAPRP	-0.217
RRIRRRPPRLPRPRPRPTQWPRP	0.183
RRIRFRPPRLPRPRPRPSSRPRP	-0.273
RRIRARPPRLPRPRPRPNEHPRP	0.0215
RRIRGRPPRLPRPRPRPQYLPRP	0.0284
RRIRCRPPRLPRPRPRPLRTPRP	1.01
RRIRLRPPRLPRPRPRPAHMPRP	-0.0737
RRIRKRPPRLPRPRPRPRAFPRP	0.326
RRIRRRPPRLPRPRPRPMQEPRP	-0.206
RRIRVRPPRLPRPRPRPMAIPRP	-0.11
RRIRARPPRLPRPRPRPCSVPRP	0.0736
RRIRARPPRLPRPRPRPTKQPRP	-0.148
RRIRPRPPRLPRPRPRPQGGPRP	0.332
RRIRARPPRLPRPRPRPISMPRP	0.0208
RRIRDRPPRLPRPRPRPINYPRP	0.0585
RRIRERPPRLPRPRPRPARVPRP	-0.505
RRIRMRPPRLPRPRPRPIWVPRP	-0.0406
RRIRMRPPRLPRPRPRPCAEPRP	2.31
RRIRARPPRLPRPRPRPLDKPRP	0.332
RRIRARPPRLPRPRPRPATHPRP	0.186
RRIRGRPPRLPRPRPRPNVWPRP	0.728

— the supplement of paper PMC9112550, “Optimization of the antimicrobial peptide Bac7 by deep mutational scanning” (BMC Biology, 2022)
